Test results taken from patent US20200246484.

Tested on: MMP-responsive peptide (P3), cleavable 'L' form, conjugated to PEG (2, 5 or 10 kD) and attached directly to 13-nm Au nanoparticle SNAs

MMP-9
MMP9-mediated cleavage kinetics (fluorescence on release of the N-terminal fluorophore from the Au surface): decrease in cleavage rates for 5 kD and 10 kD PEG compared to 2 kD PEG
